Reference: US11407825B2, “NaPi2b-targeted polymer antibody-drug conjugates and methods of use thereof” (Mersana Therapeutics, Inc., priority 2018, dated 2022)

Assay: Phase 1b dose escalation study of XMT-1536: safety and tolerability (adverse events, DLT)
Assay type: in vivo, human
Excerpt: The study presented herein is an open label, multi-center Phase 1b study of XMT-1536 administered as an intravenous infusion once every three or four weeks. The dose escalation (DES) part of the study will establish the maximum tolerated dose (MTD) or recommended Phase 2 dose (RP2D) for XMT-1536 in patients with a number of tumor types likely to express NaPi2b, with a focus on patients with platinum-resistant ovarian cancer and non-squamous non-small cell lung cancer (NSCLC). […] The RP2D may differ from the MTD and may take into account tolerability, pharmacokinetic and pharmacodynamic measures, and efficacy of XMT-1536 based on RECIST 1.1. After the first cycle, patients may continue to receive XMT-1536 until disease progression provided the drug is well-tolerated and patients continue to derive clinical benefit in the opinion of the Investigator. The DES segment of the study utilized an accelerated titration design. The first 3-week cycle of treatment constitutes the dose limiting toxicity (DLT) evaluation period. For the first two dose levels, a minimum of 1 patient was treated at each dose level. If this patient experiences a treatment-emergent adverse event of Grade 2 or higher, 2 additional patients will be added at this dose level, and the study will subsequently follow a 3+3 design, as described below. […] Starting with Dose Level 3, the study will follow a standard 3+3 design, with 3 patients enrolled initially at each dose level. […] However, in the event of 1 DLT, 3 additional patients will be enrolled at the same dose level. Any dose level with 2 or more DLTs will be considered to exceed the MTD and subsequent patients will be enrolled at lower dose level(s). After the first cycle, patients may continue to receive XMT-1536 until disease progression if the drug is well-tolerated and patients continue to derive clinical benefit in the opinion of the Investigator.
After an August 2018 protocol amendment, each cycle will be 4-week (28 day) dose cycle. The first two, 4-week cycles of treatment (56 days) constitutes the dose limiting toxicity (DLT) evaluation period. Beginning with this amendment, up to 10 patients will be enrolled for evaluation at 20.0 mg/m^2 under the new 4-week cycle dose regimen. If that dose is cleared by the SRC, subsequent dose groups will follow a modified 3+3 design. Three patients will be enrolled initially and if toxicity issues arise, the SRC will review all pertinent data and may decide to add more patients to fully evaluate a dose in question and/or lower the dose. […] The observation period for DLTs is 56 days, between Day 1 through the end of Cycle 2 which includes the pre-dose assessments before receiving the Cycle 3 dose. A maximum of ten patients will be enrolled per dose level prior to the SRM. that will be conducted no later than 5 days after at least the sixth patient dosed in each level has completed Cycle 2, Day 28 evaluations. The data available for the patients dosed in all prior will be factored into the data review for each applicable dose escalation SRM. Any dose level with 2 or more DLTs occurring in 6 or fewer treated patients will be considered to exceed the MTD and subsequent patients will be enrolled at lower dose level(s). After the second cycle, patients may continue to receive XMT-1536 until disease progression if the drug is well-tolerated and patients continue to derive clinical benefit in the opinion of the Investigator. After completion of DES, the EXP segment of the study will be opened.
All adverse events will be graded according to the National Cancer Institute (NCI) Common Terminology Criteria version (CTCAE v4.03). The observation period for DLTs is 56 days, between Day 1 through end of Cycle 2 which includes the pre-dose assessments before receiving the Cycle 3 dose. […]

B1: XMT-1536: about 10-15 molecules of auristatin F-hydroxypropyl amide conjugated to a cysteine moiety of NaPi2b monoclonal antibody XMT-1535 via a PHF scaffold (conjugate, chains of the INN, looked up)
VH: QVQLVQSGAEVVKPGASVKMSCKASGYTFTGYNIHWVKQAPGQGLEWIGAIYPGNGDTSYKQKFRGRATLTADTSTSTVYMELSSLRSEDSAVYYCARGETARATFAYWGQGTLVTVSS
VL: DIQMTQSPSSLSASVGDRVTITCSASQDIGNFLNWYQQKPGKTVKVLIYYTSSLYSGVPSRFSGSGSGTDYTLTISSLQPEDFATYYCQQYSKLPLTFGQGTKLELK
modifications: auristatin F-hydroxypropyl amide via PHF scaffold
notes: about 10-15 molecules of auristatin F-hydroxypropyl amide conjugated to a cysteine moiety of NaPi2b monoclonal antibody XMT-1535 via a PHF scaffold
number of DLT (30 mg/m^2, 28-day cycle, as of August 2019): One | number of DLT (30 mg/m^2, 28-day cycle, as of February 2019): one | number of DLT (36 mg/m^2, 28-day cycle, as of August 2019): one | number of DLT (40 mg/m^2, 21-day cycle, as of February 2019): One | possible treatment related SAE (DL4 (20 mg/m^2)): Grade 3 cardiac failure congestion | SAE related to study drug (DL 4, 21-day cycle, as of February 2019): congestive heart failure | possible treatment related SAE (DL5 (30 mg/m^2)): Grade 2 pyrexia | SAE related to study drug (DL 5, 30 mg/m^2, 21-day cycle, as of February 2019): pyrexia | ALT or bilirubin elevation (DL 5A): no elevation of ALT or bilirubin | time for AST elevation to return to Grade 1 (DL 5A): ≤ 13 days | time for AST elevation to return to Grade 2 (DL 5A): ≤ 7 days | finding accompanying AST elevation (DL 5A, alkaline phosphatase): Grade 1 alkaline phosphatase elevation | dose limiting toxicity (DL 5A, cycle 1, day 8): Grade 3 AST | bilirubin elevation (DL6): no elevation of bilirubin | time for ALT elevation to resolve to Grade 1 (DL6): ≤ 8 days | time for AST elevation to return to Grade 1 (DL6): ≤ 21 days | finding accompanying AST elevation (DL6, ALT): Grade 2 ALT elevation | finding accompanying AST elevation (DL6, alkaline phosphatase): Grade 1 alkaline phosphatase elevation | dose limiting toxicity (DL6, cycle 1, day 8): Grade 3 AST | Aspartate aminotransferase (AST) increased Grade 1, patients (TRAE, N = 37, May 10, 2019): 3 | Aspartate aminotransferase (AST) increased Grade 1, percent of patients (TRAE, N = 37, May 10, 2019): (8) % | Aspartate aminotransferase (AST) increased Grade 2, patients (TRAE, N = 37, May 10, 2019): 2 | Aspartate aminotransferase (AST) increased Grade 2, percent of patients (TRAE, N = 37, May 10, 2019): (5) % | Aspartate aminotransferase (AST) increased Grade 3, patients (TRAE, N = 37, May 10, 2019): 4 | Aspartate aminotransferase (AST) increased Grade 3, percent of patients (TRAE, N = 37, May 10, 2019): 11% | Aspartate aminotransferase (AST) increased Total, patients (TRAE, N = 37, May 10, 2019): 9 | Aspartate aminotransferase (AST) increased Total, percent of patients (TRAE, N = 37, May 10, 2019): (24) % | Blood alkaline phosphatase increased Grade 1, patients (TRAE, N = 37, May 10, 2019): 6 | Blood alkaline phosphatase increased Grade 1, percent of patients (TRAE, N = 37, May 10, 2019): (16) % | Blood alkaline phosphatase increased Grade 2, patients (TRAE, N = 37, May 10, 2019): 0 | Blood alkaline phosphatase increased Grade 3, patients (TRAE, N = 37, May 10, 2019): 0 | Blood alkaline phosphatase increased Total, patients (TRAE, N = 37, May 10, 2019): 6 | Blood alkaline phosphatase increased Total, percent of patients (TRAE, N = 37, May 10, 2019): (16) % | Decreased appetite Grade 1, patients (TRAE, N = 37, May 10, 2019): 1 | Decreased appetite Grade 1, percent of patients (TRAE, N = 37, May 10, 2019): (3) % | Decreased appetite Grade 2, patients (TRAE, N = 37, May 10, 2019): 6 | Decreased appetite Grade 2, percent of patients (TRAE, N = 37, May 10, 2019): (16) % | Decreased appetite Grade 3, patients (TRAE, N = 37, May 10, 2019): 0 | Decreased appetite Total, patients (TRAE, N = 37, May 10, 2019): 7 | Decreased appetite Total, percent of patients (TRAE, N = 37, May 10, 2019): (19) % | Fatigue Grade 1, patients (TRAE, N = 37, May 10, 2019): 4 | Fatigue Grade 1, percent of patients (TRAE, N = 37, May 10, 2019): (11) % | Fatigue Grade 2, patients (TRAE, N = 37, May 10, 2019): 7 | Fatigue Grade 2, percent of patients (TRAE, N = 37, May 10, 2019): (19) % | Fatigue Grade 3, patients (TRAE, N = 37, May 10, 2019): 0 | Fatigue Total, patients (TRAE, N = 37, May 10, 2019): 11 | Fatigue Total, percent of patients (TRAE, N = 37, May 10, 2019): (30) % | Gamma-glutamyltransferase (GGT) increased Grade 1, patients (TRAE, N = 37, May 10, 2019): 3 | Gamma-glutamyltransferase (GGT) increased Grade 1, percent of patients (TRAE, N = 37, May 10, 2019): (8) % | Gamma-glutamyltransferase (GGT) increased Grade 2, patients (TRAE, N = 37, May 10, 2019): 1 | Gamma-glutamyltransferase (GGT) increased Grade 2, percent of patients (TRAE, N = 37, May 10, 2019): (3) % | Gamma-glutamyltransferase (GGT) increased Grade 3, patients (TRAE, N = 37, May 10, 2019): 0 | Gamma-glutamyltransferase (GGT) increased Total, patients (TRAE, N = 37, May 10, 2019): 4 | Gamma-glutamyltransferase (GGT) increased Total, percent of patients (TRAE, N = 37, May 10, 2019): (11) % | Headache Grade 1, patients (TRAE, N = 37, May 10, 2019): 5 | Headache Grade 1, percent of patients (TRAE, N = 37, May 10, 2019): (14) % | Headache Grade 2, patients (TRAE, N = 37, May 10, 2019): 5 | Headache Grade 2, percent of patients (TRAE, N = 37, May 10, 2019): (14) % | Headache Grade 3, patients (TRAE, N = 37, May 10, 2019): 0 | Headache Total, patients (TRAE, N = 37, May 10, 2019): 10 | Headache Total, percent of patients (TRAE, N = 37, May 10, 2019): (27) % | Myalgia Grade 1, patients (TRAE, N = 37, May 10, 2019): 3 | Myalgia Grade 1, percent of patients (TRAE, N = 37, May 10, 2019): (8) % | Myalgia Grade 2, patients (TRAE, N = 37, May 10, 2019): 1 | Myalgia Grade 2, percent of patients (TRAE, N = 37, May 10, 2019): (3) % | Myalgia Grade 3, patients (TRAE, N = 37, May 10, 2019): 0 | Myalgia Total, patients (TRAE, N = 37, May 10, 2019): 4 | Myalgia Total, percent of patients (TRAE, N = 37, May 10, 2019): (11) % | Nausea Grade 1, patients (TRAE, N = 37, May 10, 2019): 12 | Nausea Grade 1, percent of patients (TRAE, N = 37, May 10, 2019): (32) % | Nausea Grade 2, patients (TRAE, N = 37, May 10, 2019): 2 | Nausea Grade 2, percent of patients (TRAE, N = 37, May 10, 2019): (5) % | Nausea Grade 3, patients (TRAE, N = 37, May 10, 2019): 0 | Nausea Total, patients (TRAE, N = 37, May 10, 2019): 14 | Nausea Total, percent of patients (TRAE, N = 37, May 10, 2019): (38) % | Pyrexia Grade 1, patients (TRAE, N = 37, May 10, 2019): 3 | Pyrexia Grade 1, percent of patients (TRAE, N = 37, May 10, 2019): (8) % | Pyrexia Grade 2, patients (TRAE, N = 37, May 10, 2019): 1 | Pyrexia Grade 2, percent of patients (TRAE, N = 37, May 10, 2019): (3) % | Pyrexia Grade 3, patients (TRAE, N = 37, May 10, 2019): 0 | Pyrexia Total, patients (TRAE, N = 37, May 10, 2019): 4 | Pyrexia Total, percent of patients (TRAE, N = 37, May 10, 2019): (10) % | Vomiting Grade 1, patients (TRAE, N = 37, May 10, 2019): 4 | Vomiting Grade 1, percent of patients (TRAE, N = 37, May 10, 2019): (11) % | Vomiting Grade 2, patients (TRAE, N = 37, May 10, 2019): 1 | Vomiting Grade 2, percent of patients (TRAE, N = 37, May 10, 2019): (3) % | Vomiting Grade 3, patients (TRAE, N = 37, May 10, 2019): 0 | Vomiting Total, patients (TRAE, N = 37, May 10, 2019): 5 | Vomiting Total, percent of patients (TRAE, N = 37, May 10, 2019): (14) % | grade of treatment-related adverse events (TRAEs) (as of February 2019): Grade 1 or 2 | most common TRAEs (as of February 2019): anemia, arthralgias, fatigue, vomiting, anorexia, AST increase, diarrhea, dyspnea (unrelated or unlikely related), hypoalbuminema (unrelated or unlikely related), hypoxia (unrelated), headache, nausea, proteinuria and vomiting | number of SAEs related to study drug (as of February 2019): Two | Grade 4 or 5 TRAE (as of May 10, 2019): no Grade 4 or 5 TRAE | grade of adverse events (as of May 10, 2019): most adverse events being Grade 1 or 2 | number of SAEs unrelated or unlikely related to treatment (as of May 10, 2019): Seventeen | number of possible treatment related SAEs (as of May 10, 2019): Two | patients with SAEs unrelated or unlikely related to treatment (as of May 10, 2019): 11 | tolerability (as of May 10, 2019): well tolerated | toxicities often associated with microtubule-targeting agents or ADCs (neutropenia, ocular toxicities, peripheral neuropathy) (as of May 10, 2019): Low rate | number of dose limiting toxicities (at DL 5A (30 mg/m^2) and DL 6 (40 mg/m^2)): Two | MTD / RP2D (conclusions): Neither MTD nor RP2D has been identified | tolerability (maximum doses administered (40 mg/m^2)): well tolerated | tolerability (up to the 30 mg/m^2 or 36 mg/m^2 or 43 mg/m^2 dose level): well-tolerated
